Key:
Assay type in all cases: cell-based, human
Tyk2 phosphorylation = Tyk2 phosphorylation in healthy keratinocytes (IL-22); conditions: IL-22 10 min, no peptide, n = 3
Protocol: 2nd- or 3rd-passage cultures of human keratinocyte strains (n = 5), obtained as previously described, were grown in serum-free Keratinocyte Growth Medium (KGM; Clonetics, Walkersville, MD, USA), for 3–5 days (at 60–80% confluence) before performing experiments. The HaCaT human keratinocyte cell line was a gift from N.E. Fusenig (Deutsches Krebsforschungszentrum, Heidelberg, Germany), and was grown in Dulbecco modified Eagle medium (DMEM; Biochrom, Cambridge, UK) supplemented with 10% Fetalclone II serum (HyClone Laboratories, South Logan, UT, USA). SCC-derived cell lines, CAL27-and CAL33 (American Tissue Culture Collection, ATCC, Milan, Italy), SCC12, SCC13 and SCC-15 (kindly provided by Dr. A. Marconi, University of Modena e Reggio Emilia, Italy), as well as M77015-08 and TE354.T (ATCC) were grown in DMEM (Biocrhom AG, Cambridge, UK) with 10% fetal bovine serum (HyClone Laboratories). Primary cultures of healthy keratinocytes and skin tumor cell lines were treated with peptides (KIR, KIR-ESS, Ctrl1 and Ctrl2) resuspended in 1X PBS for 1 h and, then, stimulated with 50 ng/ml IL-22 or 200 U/ml IFN-γ (R&D Systems, Minneapolis, MN, USA) in keratinocyte basal medium (KBM, Clonetics) or DMEM, respectively.
Total protein extracts were prepared as previously reported. Immunoprecipitation and immunoblotting were performed accordingly to standard procedures. […]

Jak1 phosphorylation = test: IP/WB of Jak1 phosphorylation in healthy keratinocytes (IL-22); conditions: IL-22 10 min, no peptide, n = 3
Protocol: (§1) Figure 5 KIR-ESS peptide inhibits IL-22-induced phosphorylation of STAT3 and Erk in healthy and SCC-derived keratinocytes (A) Protein extracts obtained from healthy keratinocytes (n = 3) pre-treated or not with 15 μM (left panel) or 75 μM (right panel), KIR, KIR-ESS and control (Ctrl1 or Ctrl2) peptides, and, then, stimulated or not with IL-22 for 20 min, were subjected to WB analysis to detect STAT3 (Tyr705), Erk and MEK phosphorylation. Filters were probed with anti-STAT3, -Erk and –MEK Abs (top). (B) Protein extracts obtained from healthy keratinocytes (n = 3) pre-treated or not with 75 μM KIR-ESS and control (Ctrl1) peptides, and, then, stimulated or not with IL-22 for 10 min, were subjected to immunoprecipitation for IL-22R1 and Jak1, and then analysed by WB to detect phosphorylated and unphosphorylated forms of the proteins. (C) Unphosphorylated and phosphorylated forms of STAT1 (Tyr701) and STAT3 (Tyr705) were monitored in keratinocytes treated with IFN-γ for 15 min by WB analysis (bottom). In all experimental groups, filters were stripped and re-probed with β-actin Ab. (D) Protein extracts were obtained from CAL27 (left panel) or CAL33 (right panel) lines treated or not with 75 μM peptides in presence of IL-22 or IFN-γ. WB was performed to detect basal and phosphorylated STAT1, STAT3 and Erk. […]

MEK phosphorylation = test: Western blot of MEK phosphorylation in healthy keratinocytes (IL-22); conditions: IL-22 time course, no peptide, n = 3
Protocol: as §1, with “[…],” for “stimulated or not with IL-22 for 20 min,”, “Erk. D.I. ratio indicates the densitometric intensity of phosphorylated/unphosphorylated target protein.” for “Erk.”

B1: IL-22: cytokine stimulus, R&D Systems (protein, UniProt Q9GZX6 34-179, looked up)
Interleukin-22: APISSHCRLDKSNFQQPYITNRTFMLAKEASLADNNTDVRLIGEKLFHGVSMSERCYLMKQVLNFTLEEVLFPQSDRFQPYMQEVVPFLARLSNRLSTCHIEGDDLHIQRNVQKLKDTVKKLGESGEIKAIGELDLLFMSLRNACI
Tyk2 phosphorylation induced (Tyk2 phosphorylation): induced molecular cascade implicating phosphorylation of IL-22R1, Tyk2 and Jak1
Jak1 phosphorylation induced (Jak1 phosphorylation): induced molecular cascade implicating phosphorylation of IL-22R1, Tyk2 and Jak1
MEK1/2 activation (MEK phosphorylation): culminated with STAT3, MEK1/2 and Erk1/2 activation
